Assay results published in article PMC8558838 (The Journal of Experimental Medicine, 2021).
Where a chain is given by its changes, count along the chain named. Values belong to the molecule of their own block, whether it stands above or below them.

T1: mHVEM^−LIGHT (H86D-L90A) soluble protein, mHVEM-hIgG1 format (mouse, UniProt Q80WM9 39-206, H86D | L90A)
T1 construct: mouse HVEM (TNFRSF14) residues Q39-Q206 with H86D and L90A; also called mHVEM H86D-L90A double mutein; source: expressed in soluble form (Expi293, purified on Ni resin, as told for mHVEM-hIgG1); not shown: Fc (human IgG1), C-terminal, kept
T1 sequence (looked up): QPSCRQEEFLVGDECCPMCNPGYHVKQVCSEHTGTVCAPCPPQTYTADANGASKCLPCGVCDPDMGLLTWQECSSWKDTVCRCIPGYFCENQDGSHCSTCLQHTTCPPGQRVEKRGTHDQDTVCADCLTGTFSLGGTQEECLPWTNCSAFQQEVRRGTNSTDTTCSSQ

T2: mHVEM (Q39-Q206)-human IgG1-hexa-His, WT (mouse, UniProt Q80WM9 39-206)
T2 chain: T1 sequence (looked up) with D48H, A52L

T3: mHVEM^−BT/160 (G72R-V74A) soluble protein, mHVEM-hIgG1 format (mouse, UniProt Q80WM9 39-206, G72R | V74A)
T3 construct: mouse HVEM (TNFRSF14) residues Q39-Q206 with G72R and V74A; also called mHVEM G72R-V74A double mutein; source: expressed in soluble form (Expi293, purified on Ni resin, as told for mHVEM-hIgG1); not shown: Fc (human IgG1), C-terminal, kept
T3 sequence (looked up): T1 sequence (looked up) with G34R, V36A, D48H, A52L

T4: mHVEM (Q39-Q206)-human IgG1-hexa-His, WT (mouse, UniProt Q80WM9 39-206)
T4 construct: mouse HVEM (TNFRSF14) residues Q39-Q206; pcDNA 3.3; also called mHVEM-hIgG1; mHVEM^WT; source: Expi293, transfected, purified (Ni resin); not shown: Fc (human IgG1), C-terminal, kept
T4 sequence (looked up): T1 sequence (looked up) with D48H, A52L

B1: human HVEM extracellular domain (L39-C162) (domain or fragment, UniProt Q92956 39-162, looked up)
chain: LPSCKEDEYPVGSECCPKCSPGYRVKEACGELTGTVCEPCPPGTYIAHLNGLSKCLQCQMCDPAMGLRASRNCSRTENAVCGCSPGHFCIVQDGDHCAACRAYATSSPGQRVQKGGTESQDTLC
notes: human HVEM (TNFRSF14), extracellular domain, residues L39-C162; positions numbered with initiation codon = 1; Cloned into pMT/BiP/V5-His for His-tag fusion protein production; also called hHVEM; TNFRSF14
B2: mouse BTLA, soluble protein used as analyte in the Octet experiment (ligand, UniProt Q7TSA3 30-183, looked up)
chain: EKATKRNDEECPVQLTITRNSKQSARTGELFKIQCPVKYCVHRPNVTWCKHNGTICVPLEVSPQLYTSWEENQSVPVFVLHFKPIHLSDNGSYSCSTNFNSQVINSHSVTIHVRERTQNSSEHPLITVSDIPDATNASGPSTMEERPGRTWLLY
notes: mouse BTLA (CD272), soluble form; also called mBTLA
B3: single chain homotrimeric mLIGHT extracellular domain (G73-V239) connected by two (GGGGS)4 linkers (ligand, mouse)
chain: GGKGSWEKLIQDQRSHQANPAAHLTGANASLIGIGGPLLWETRLGLAFLRGLTYHDGALVTMEPGYYYVYSKVQLSGVGCPQGLANGLPITHGLYKRTSRYPKELELLVSRRSPCGRANSSRVWWDSSFLGGVVHLEAGEEVVVRVPGNRLVRPRDGTRSYFGAFMVGGGGSGGGGSGGGGSGGGGSGGKGSWEKLIQDQRSHQANPAAHLTGANASLIGIGGPLLWETRLGLAFLRGLTYHDGALVTMEPGYYYVYSKVQLSGVGCPQGLANGLPITHGLYKRTSRYPKELELLVSRRSPCGRANSSRVWWDSSFLGGVVHLEAGEEVVVRVPGNRLVRPRDGTRSYFGAFMVGGGGSGGGGSGGGGSGGGGSGGKGSWEKLIQDQRSHQANPAAHLTGANASLIGIGGPLLWETRLGLAFLRGLTYHDGALVTMEPGYYYVYSKVQLSGVGCPQGLANGLPITHGLYKRTSRYPKELELLVSRRSPCGRANSSRVWWDSSFLGGVVHLEAGEEVVVRVPGNRLVRPRDGTRSYFGAFMV
notes: mouse LIGHT (TNFSF14) extracellular domain G73-V239, first copy; linker, printed as (GGGGS)4; mouse LIGHT (TNFSF14) extracellular domain G73-V239, second copy; mouse LIGHT (TNFSF14) extracellular domain G73-V239, third copy; Three copies of the extracellular domain on one chain; source: Expi293, transfected, purified (Ni resin, SEC)
B4: human LIGHT extracellular domain (L83-V240) (ligand, UniProt O43557 83-240, looked up)
chain: LIQERRSHEVNPAAHLTGANSSLTGSGGPLLWETQLGLAFLRGLSYHDGALVVTKAGYYYIYSKVQLGGVGCPLGLASTITHGLYKRTPRYPEELELLVSQQSPCGRATSSSRVWWDSSFLGGVVHLEAGEKVVVRVLDERLVRLRDGTRSYFGAFMV
notes: human LIGHT (TNFSF14), extracellular domain, residues L83-V240; Homotrimer; The His tag is used for detection in the flow cytometry staining; also called hLIGHT; TNFSF14; not shown: His6 (HHHHHHG), N-terminal, kept
B5: mouse CD160 (30I-154H) with C-terminal …, biotinylated (ligand)
chain: IHVTSSASQKGGRLDLTCTLWHKKDEAEGLILFWCKDNPWNCSPETNLEQLRVKRDPETDGITEKSSQLVFTIEQATPSDSGTYQCCARSQKPEIYIHGHFLSVLVTGNHTEIRQRQRSHPDFSH
modifications: biotin
B6: mouse CD160 (30I-154H) with C-terminal [residues removed], biotinylated (ligand, UniProt O88875 30-154, looked up)
chain: B5 chain
modifications: biotin
notes: mouse CD160 residues 30I-154H; also called mCD160; mCD160-biotin

Legend:
[1] = biological target: mBTLA protein; assay: flow cytometry, cell–protein method; conditions: parent: est. 1.0; read off a plot
[2] = biological target: mouse CD160 (30I-154H) with C-terminal …, biotinylated (UniProt O88875); assay: flow cytometry, cell–protein method
[3] = biological target: full-length mouse LIGHT, on cells (mLIGHT-IRES-EGFP) (UniProt Q9QYH9); assay: flow cytometry, cell–cell method
[4] = biological target: full-length mouse BTLA-EGFP, on cells (UniProt Q7TSA3); assay: flow cytometry, cell–cell method
[5] = biological target: human LIGHT extracellular domain (L83-V240) (human) (UniProt O43557); assay: crystal structure; single-chain hCD160–hHVEM and hLIGHT mixed in a 1:1 molar ratio, 5 mg/ml in 10 mM Hepes pH 7.0, 150 mM NaCl; crystallised in 12% PEG3350, 4% tacsimate; 3.5 Å
[6] = biological target: B4; assay: SEC; analytical SEC; equal molar equivalents of hLIGHT and hHVEM monomers mixed; conditions: both partners purified
[7] = biological target: T1, mHVEM^−LIGHT (H86D-L90A) soluble …; assay: BLI; Octet; mHVEM-hIgG1 immobilised on the sensors, challenged with different concentrations of mLIGHT, mBTLA or mCD160; steady-state fit for mLIGHT, 1:1 Langmuir model for mBTLA and mCD160; conditions: both partners purified
[8] = biological target: T2, mHVEM (Q39-Q206)-human IgG1-hexa-His, WT; assay: BLI
[9] = biological target: mHVEM^−LIGHT (H86D-L90A) soluble protein, mHVEM-hIgG1 format (mouse, UniProt Q80WM9 39-206, H86D | L90A); assay: BLI
[10] = biological target: T3, mHVEM^−BT/160 (G72R-V74A) soluble …; assay: BLI; Octet; mHVEM-hIgG1 immobilised on the sensors, challenged with different concentrations of mLIGHT, mBTLA or mCD160; steady-state fit for mLIGHT, 1:1 Langmuir model for mBTLA and mCD160; conditions: both partners purified
[11] = biological target: T4, mHVEM (Q39-Q206)-human IgG1-hexa-His, WT; assay: as above; conditions: both partners purified
[12] = biological target: mHVEM^−BT/160 (G72R-V74A) soluble protein, mHVEM-hIgG1 format (mouse, UniProt Q80WM9 39-206, G72R | V74A); assay: BLI
[13] = biological target: the molecule itself; assay: crystal structure; hHVEM and hLIGHT mixed in a 1:1 molar ratio, 3 mg/ml in 10 mM Hepes pH 7.0, 150 mM NaCl; crystallised in 0.1 M Bis-Tris pH 5.5, 0.2 M MgCl2, 9% PEG3350; 2.30 Å

ratio to parent [1]: 0.01
Molecule: full-length WT mouse HVEM-mCherry, on cells (from UniProt Q80WM9) G72A; V74D

ratio to parent [1]: 0.82
Molecule: full-length WT mouse HVEM-mCherry, on cells (from UniProt Q80WM9) H86D; L90D

ratio to parent [1]: 0.66
Molecule: full-length WT mouse HVEM-mCherry, on cells (from UniProt Q80WM9) H86R; L90A

ratio to parent [2]: 1
ratio to parent [3]: 1.2
ratio to parent [4]: 1.1
Molecule: full-length WT mouse HVEM-mCherry, on cells (from UniProt Q80WM9) A76A

ratio to parent [1]: 0.01
Molecule: full-length WT mouse HVEM-mCherry, on cells (from UniProt Q80WM9) G72D; V74D

ratio to parent [1]: 0.01
Molecule: full-length WT mouse HVEM-mCherry, on cells (from UniProt Q80WM9) G72R; V74A

ratio to parent [1]: 0.02
Molecule: full-length WT mouse HVEM-mCherry, on cells (from UniProt Q80WM9) G72D; V74A

ratio to parent [1]: 0.01
Molecule: full-length WT mouse HVEM-mCherry, on cells (from UniProt Q80WM9) G72D; V74R

stoichiometry N (hCD160–hHVEM per hLIGHT homotrimer) [5]: 3
Molecule: single-chain hCD160–hHVEM fusion protein

ratio to parent [1]: 0.63
Molecule: full-length WT mouse HVEM-mCherry, on cells (from UniProt Q80WM9) H86D; L90R

ratio to parent [1]: 0.78
Molecule: full-length WT mouse HVEM-mCherry, on cells (from UniProt Q80WM9) H86A; L90A

Molecule: B1
stoichiometry N [6]: 3 hHVEM per hLIGHT homotrimer

Molecule: B2
fold reduction of binding against WT mHVEM [7]: ~5 fold
Kd [8]: 1.1 µM
Kd [9]: 5.3 µM

Molecule: B3
binding result [10]: binds
binding result [11]: binds
Kd [8]: 0.0162 µM
Kd [9]: 31.7 µM
Kd [12]: 0.0293 µM

Molecule: B4
stoichiometry N [13]: 3

Molecule: B5
Kd [8]: 11.6 µM
Kd [9]: 33.5 µM

Molecule: B6
fold reduction of binding against WT mHVEM [7]: ~3 fold
binding result [11]: binds
